The supplement of paper PMC9170038

Test system: K4 kissing-loop RNA reporter
Assay: apparent KD of K4 kissing-loop reporter; higher = weaker reporter binding
Conditions: Eterna round: R107
Procedure: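 RNA-MaP round R107: designed RNA switches with theophylline, tryptophan, arginine or FMN aptamers are transcribed on-chip within common flanks. They are titrated with a labelled K4 kissing-loop RNA reporter in RNA-MaP buffer (100 mM Tris pH 7.5, 80 mM KCl, 4 mM MgCl2), without ligand or with the indicated ligand. Median apparent KD per design.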

[1] = input ligand: theophylline 20 uM
[2] = input ligand: tryptophan 2.4 mM
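Note: bound reporter read as fluorescence of individual clusters on recovered sequencing chips by microscopy, with normalized cluster intensities fitted with a binding model.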

Row | Sequence | apparent KD of K4 kissing-loop reporter (input ligand: FMN 200 uM) [nM] | apparent KD of K4 kissing-loop reporter (input ligand: arginine 13.2 mM) [nM] | apparent KD of K4 kissing-loop reporter (input ligand: none) [nM] | apparent KD of K4 kissing-loop reporter [1] [nM] | apparent KD of K4 kissing-loop reporter [2] [nM]
1 | GGGCGUGGCGCGGCCGCCACUGGGCCUGGGCGCUCGCUGAGUGAUGUUCGUCGGCGGCUGGGUCGUAGGACCGGGUGCUGGUUGG [BDazzled - #7 SS Tryptophan B] | 529 | 309 | 438 | 424 | 302
2 | AUUAAUAUCACGGCCGCCACUGUAUAUUGUUUUUAUAUUUAGAAUAAUUGCCAGUGAUGUUGGAACAGGACCGGGUGAGUUUAUA [#28 K4 Tryptophan B Same State] | 511 | 434 | 626 | 402 | 323
3 | UGGACCUGACUCGAUAAGAGUCAAUGAGAUACCAGUGACGAAAGUCACCCUUGGCAGCUCAACUGCCAGUGAUGUUGGUGGUCCU [#SwitchBubble 2 #StaticStem] | 605 | 389 | 769 | 703 | 528
4 | CAUUCGAAAUGCAGUGAUGUUGCAACUGAUACCAGUAUCGAAAGAUACCCUUGGCAGCGGAAAACCGCUACGUUUUUUUUGAAUG [Ex Theophylline A K4 24] | 191 | 312 | 312 | 357 | 176
5 | UGUGUUUUUUUGAUGUUUGUUGUAAAAUGGCAGGAUAUCGUAGAGGCGAGAAGGGCUUUUAUGCGUUAUGAGUGAUGUUUGUAGG [qqdqmullin] | 316 | 297 | 315 | 336 | 241
6 | UGUGUUGUGUAGUGUUAUGUUUUGAGGGAUACCAGAGUGUUUUUAUUCCCUUGGCAGCUUGAGUGAUGUUUGAUGUUGUUGUUGU [jlljmullin] | 297 | 178 | 218 | 219 | 184
7 | CAUUCGAAAUGCAGUGAUGUUGCAACCGAUACCAGUAUCGAAAGAUACCCUUGGCAGCGGAAAACCGCUACGUAUUUUUUGAAUG [Ex Theophylline A K4 26] | 204 | 288 | 276 | 243 | 237
8 | UCCUAUACCCUUCCCGGACGCCGUGGAGAUACCAGCCACGUAGCGGGCCCUUGGCAGCUCGAGUGAUGUUCGAGAUCGUCAGGAU [Veteve] | 136 | 124 | 127 | 128 | 135
9 | UCGAAAUGCGUCUCCUAGUUUCUCCGGGAAGGAGCGUGGAUAACCGCAGGUAGGUCGCCCGGGAGCCGGACCAGUGAUGUUGGUC [Exclusion Arginine A Gf 30] | 181 | 211 | 197 | 207 | 164
10 | GGUUUCUGAAGUGAUGUUUCAGGAUGACACAAGGAUAUAUAUGGCGAUAGAAGGUGUGCGUCGCAUGACGAACGACGUCAGCUUC [theeternabot_exclusion_KL_FMN_A_37] | 94.8 | 80.9 | 120 | 123 | 93
11 | GCGAAGAAGGUUGAUACCAGUCUUGCGUGUCAAGCGCCAGUGAUGUUGGGCCUGUAGAUCGACCCUUGGCAGCAACCUCGAAAUG [theeternabot_sameState_KL_Theo_B_28] | 836 | 563 | 844 | 748 | 655
12 | AAAAUAAACCAGUGAUGUUGGUGUGUAGAUACCAGCGACGAAAGUCGCCCUUGGCAGCUGUGGACGUACAAAAUAAGUACGUCCU [MatMod 23 - Jieux - Same State - Theophylline A] | 315 | 310 | 350 | 325 | 280
13 | UAUUCUGUUCGAAAGAACGGAAUUUCGGAAGGAGCGCGAGAAAUCGCAGGUAGGUCGCCGAAAUUAUUAGGUAGUGAUGUUACCU [Arginine A K4 6] | 125 | 99.8 | 120 | 101 | 115
14 | CGGUUAUAGCAGGAUACCAGUACCCAUUAUGUACGUUUAUAGUAGAGUGAUGUUCUAAAGUACCCUUGGCAGCUUCCCGUGACCC [#23 K4 Theophylline B Exclusion] | 150 | 199 | 168 | 265 | 127
15 | AGGAGCGUGGGAUGAAAAUCGCACGCUCCUCGAGGACCGGUACGGCCGCCACUCGCUCGCGCCGAGUGAUGUUCGGCCGGCGAAC [#2 Same State - Tryptophan A Attempt #12 (HarryS)] | 265 | 244 | 312 | 217 | 556
16 | UGACUGGACUGAAGGAGCGGGCGAGACAAAGUCUCGAACUCCUAGUGAUGUUAGGAAAUAACCCAGGUAGGUCGCAGUCUAGUCU [ArgBS 7 #SwitchBubble #StaticStem #DoubleMagnet] | 149 | 104 | 128 | 136 | 137

Row | Sequence | apparent KD of K4 kissing-loop reporter (input ligand: FMN 200 uM) [nM] | apparent KD of K4 kissing-loop reporter (input ligand: arginine 13.2 mM) [nM] | apparent KD of K4 kissing-loop reporter (input ligand: none) [nM] | apparent KD of K4 kissing-loop reporter [1] [nM] | apparent KD of K4 kissing-loop reporter [2] [nM]
17 | UUUAAAUAUAGUGAUGUUAUAUAACAAUGACGAGGACCGGUACGGCCGCCACUCGAGAGAGAUAAUGGUCAUACAAAUGUAUGUU [AstrosSSTryA#10] | 672 | 677 | 738 | 789 | 529
18 | UUUUAAAUGUCUGAUACCAGAGAAAAUUUAUGUAGUGAUGUUAUAUACAAAUUAAAUAAGCUCCCUUGGCAGCAGUAUUAAUUUU [AstrosExc-TheB#9] | 583 | 596 | 846 | 623 | 552
19 | UGUACCGAGUCAGGAUAUGGCGUCGAAAGACGAAACCAGUGAUGUUGGAAUCGAUCGAAAGAUCGUCCAGAAGGGACUUGGUACU [FmnBS 21 #SwitchBubble #StaticStem #DoubleMagnetSystem] | 204 | 382 | 377 | 349 | 359
20 | CGCAGUGAUGUUGCGAGUAGCUACAGGGAAGGAGCGUGCUAGAGCACAGGUAGGUCGCCCACGCAGUGAUGUUGUGUCAAAGGGU [Exclusion Arginine A GF 11] | 167 | 168 | 165 | 179 | 146
21 | UGAUAGGACAGAAGGAGCGGAAGUGAUGUUUCCAAAAGGAGAGGUCGACAAAGUCGACCCUUCCAGGUAGGUCGCUGUCCUAUCU [ArgBX 10 #Palindromic #SwitchBubble #StaticStem] | 95.3 | 83.5 | 79.1 | 105 | 86.7
22 | UGCGCUGUGUACUGAAAUGUCCUGCGGGAUACCAGAGUCUUUUUAUUCCCUUGGCAGCUUGAGUGAUGUUUGAUGCCGUUCUUGU [frrgmullin] | 786 | 423 | 710 | 738 | 470
23 | AAAAUAAUCCAGUGAUGUUGGUAUCCAGAUACCAGCCACGAAAGUGGCCCUUGGCAGCUGUGGACGUACAAAAUAAGUACGUCCU [#OpenEnded 8 #StaticStem #K4Early] | 534 | 293 | 729 | 790 | 651
24 | UAGUCAUACAGAGGAUAUCGUAUGAGUGAUGUUCAUAUGCGUACAUCAACUUGAUGUACACCUAGACGAGAAGGCUGUAUGACUA [FMB B SS t6a] | 172 | 199 | 252 | 212 | 227
25 | UAACUUGCAGUGAUGUUGCAAGAACUGGAUACCAGCAUGGAAACAUGCCCUUGGCAGCCAGAAGCUGGCUGCUUGUAAUGUCAGC [Design6] | 162 | 158 | 170 | 131 | 138
26 | GCCUUUGUACAGUCCGUUUGUCAUGUGGAUACCAGCAGGAUAGCUUGCCCUUGGCAGCCAUCCAUUUAAUGUAGUGAUGUUACGC [theeternabot_exclusion_KL_Theo_A_13] | 398 | 440 | 477 | 412 | 338
27 | GAUUCCCAAGCGGCCGCCACUUAUAGUGAUGUUAUAGGGACUGCGGAUCAGGACAAUCAUACAUAAAGGACCGGGCUAUUCUGAC [theeternabot_exclusion_KL_Trp_B_1] | 264 | 246 | 305 | 255 | 261
28 | CCUUUCAGUUACGAUACCAGUCUAAUAUAUUUGAUCAAUACCCUCGCCGAGUGAUGUUCGGACCCUUGGCAGCGUCUGGGACAGG [gbbymullin] | 526 | 428 | 525 | 418 | 337
29 | AGUUCUUGCCGAAGGAGCGAGGCAGAGUGAUGUUCUGCACGAGGUCGAAAGACCUCGCUGCCUCAGGUAGGUCGCGGCAUGAACA [Omei KL Arginine B Exc A v2] | 897 | 504 | 1130 | 614 | 1300
30 | UGACUACAGGAAUAAUAAUCCUAGUGAUGUUAGGAUAUGCUGAUAAGCAGAAGGAACUGAGAUCGAAAGAUCUCAAAAGUAGUCU [FmnAX 28 Mat Inspired #SwitchBubble #StaticStem #K4Early] | 139 | 89.3 | 92.9 | 106 | 96.7
31 | GCCUAGGCUCGAAAGAGCCUAGGCUGGGCUCAGGAUAUCCGGAAACGGAGAAGGGAGGGACUAGUGAUGUUAGGGAUUCCCUAUG | 461 | 264 | 290 | 251 | 203
